Key:
[1] = substrate: C[C@@H](O)[C@H]1C(=O)N2C(C(=O)O)=C(S[C@@H]3CN[C@H](C(=O)N(C)C)C3)[C@H](C)[C@H]12; settings: Escherichia coli
[2] = substrate: C[C@@H](O)[C@H]1C(=O)N2C(C(=O)O)=C(S[C@@H]3CN[C@H](CNS(N)(=O)=O)C3)[C@H](C)[C@H]12; settings: Escherichia coli
[3] = substrate: C[C@@H](O)[C@H]1C(=O)N2C(C(=O)O)=C(SCCNC=N)C[C@H]12; settings: Escherichia coli
[4] = substrate: C[C@@H](O)[C@H]1C(=O)N2C(C(=O)O)=C(S[C@@H]3CN[C@H](C(=O)N(C)C)C3)[C@H](C)[C@H]12; assay: (§1) Activity of Escherichia coli CTX-M-15
[5] = substrate: C[C@@H](O)[C@H]1C(=O)N2C(C(=O)O)=C(S[C@@H]3CN[C@H](CNS(N)(=O)=O)C3)[C@H](C)[C@H]12; assay: as §1
[6] = substrate: C[C@@H](O)[C@H]1C(=O)N2C(C(=O)O)=C(SCCNC=N)C[C@H]12; assay: as §1
[7] = substrate: C[C@@H](O)[C@H]1C(=O)N2C(C(=O)O)=C(S[C@@H]3CN[C@H](C(=O)N(C)C)C3)[C@H](C)[C@H]12; assay: (§2) Activity of Acinetobacter baumannii OXA-23
[8] = substrate: CC1(C)S[C@@H]2[C@H](NC(=O)Cc3ccccc3)C(=O)N2[C@H]1C(=O)O; assay: as §2
[9] = substrate: CC(C)(O/N=C(\C(=O)N[C@@H]1C(=O)N2C(C(=O)[O-])=C(C[n+]3ccccc3)CS[C@H]12)c1csc(N)n1)C(=O)O; assay: as §2
[10] = substrate: C[C@@H](O)[C@H]1C(=O)N2C(C(=O)O)=C(S[C@@H]3CN[C@H](CNS(N)(=O)=O)C3)[C@H](C)[C@H]12; assay: as §2
[11] = substrate: C[C@@H](O)[C@H]1C(=O)N2C(C(=O)O)=C(SCCNC=N)C[C@H]12; assay: as §2
[12] = substrate: O=C(Cc1cccs1)N[C@@H]1C(=O)N2C(C(=O)[O-])=C(C[n+]3ccccc3)CS[C@H]12; assay: as §2
[13] = substrate: CC(C)(O/N=C(\C(=O)N[C@@H]1C(=O)N2C(C(=O)[O-])=C(C[n+]3ccccc3)CS[C@H]12)c1csc(N)n1)C(=O)O; assay: Kcat/Km ratio of Pseudomonas aeruginosa SPM-1
[14] = substrate: CC(C)(O/N=C(\C(=O)N[C@@H]1C(=O)N2C(C(=O)[O-])=C(C[n+]3ccccc3)CS[C@H]12)c1csc(N)n1)C(=O)O; assay: Activity of Pseudomonas aeruginosa SPM-1
[15] = substrate: C[C@@H](O)[C@H]1C(=O)N2C(C(=O)O)=C(S[C@@H]3CN[C@H](C(=O)N(C)C)C3)[C@H](C)[C@H]12; settings: Acinetobacter baumannii
Description: (§3) Kcat/Km ratio of Acinetobacter baumannii OXA-23

[16] = substrate: CC1(C)S[C@@H]2[C@H](NC(=O)Cc3ccccc3)C(=O)N2[C@H]1C(=O)O; settings: Acinetobacter baumannii
Description: as §3

[17] = substrate: C[C@@H](O)[C@H]1C(=O)N2C(C(=O)O)=C(S[C@@H]3CN[C@H](CNS(N)(=O)=O)C3)[C@H](C)[C@H]12; settings: Acinetobacter baumannii
Description: as §3

[18] = substrate: C[C@@H](O)[C@H]1C(=O)N2C(C(=O)O)=C(SCCNC=N)C[C@H]12; settings: Acinetobacter baumannii
Description: as §3

[19] = substrate: O=C(Cc1cccs1)N[C@@H]1C(=O)N2C(C(=O)[O-])=C(C[n+]3ccccc3)CS[C@H]12; settings: Acinetobacter baumannii
Description: as §3

Pseudomonas aeruginosa [20] = assay: Activity of Pseudomonas aeruginosa SPM-1
Pseudomonas aeruginosa [21] = assay: Kcat/Km ratio of Pseudomonas aeruginosa SPM-1

B1: Beta-lactamase CTX-M (Escherichia coli), Q9EXV5 (protein)
chain: MVKKSLRQFTLMATATVTLLLGSVPLYAQTADVQQKLAELERQSGGRLGVALINTADNSQILYRADERFAMCSTSKVMAAAAVLKKSESEPNLLNQRVEIKKSDLVNYNPIAEKHVNGTMSLAELSAAALQYSDNVAMNKLIAHVGGPASVTAFARQLGDETFRLDRTEPTLNTAIPGDPRDTTSPRAMAQTLRNLTLGKALGDSQRAQLVTWMKGNTTGAASIQAGLPASWVVGDKTGSGGYGTTNDIAVIWPKDRAPLILVTYFTQPQPKAESRRDVLASAAKIVTDGL
**Q.** What does the source list for B1?
**A.** kcat/Km [1]: 380 M⁻¹ s⁻¹; kcat/Km [2]: 250 M⁻¹ s⁻¹; kcat/Km [3]: 1400 M⁻¹ s⁻¹; Km [4]: 11 µM; kcat [4]: 0.0042 s⁻¹; Km [5]: 7.1 µM; kcat [5]: 0.0018 s⁻¹; Km [6]: 120 µM; kcat [6]: 0.17 s⁻¹

B2: Beta-lactamase OXA-23 (Acinetobacter baumannii), Q9L4P2 (protein)
chain: MNKYFTCYVVASLFLSGCTVQHNLINETPSQIVQGHNQVIHQYFDEKNTSGVLVIQTDKKINLYGNALSRANTEYVPASTFKMLNALIGLENQKTDINEIFKWKGEKRSFTAWEKDMTLGEAMKLSAVPVYQELARRIGLDLMQKEVKRIGFGNAEIGQQVDNFWLVGPLKVTPIQEVEFVSQLAHTQLPFSEKVQANVKNMLLLEESNGYKIFGKTGWAMDIKPQVGWLTGWVEQPDGKIVAFALNMEMRSEMPASIRNELLMKSLKQLNII
**Q.** With B2 as the protein, how does the Km [7] read?
**A.** The Km was 2.5 µM.

**Q.** And the kcat [7]?
**A.** Its kcat is 0.13 s⁻¹.

**Q.** What about the Km [8] of the same protein?
**A.** The Km was 13 µM.

**Q.** What about the kcat [8] of the same protein?
**A.** Its kcat is 530 s⁻¹.

**Q.** And the kcat [9]?
**A.** The kcat was under 0.0042 s⁻¹.

**Q.** And the Km [10]?
**A.** The Km was 1.8 µM.

**Q.** What about the kcat [10] of the same protein?
**A.** Its kcat is 0.2 s⁻¹.

**Q.** And the Km [11]?
**A.** The Km was 1.3 µM.

**Q.** And the kcat [11]?
**A.** Its kcat is 0.92 s⁻¹.

**Q.** What about the Km [12] of the same protein?
**A.** Its Km is 1300 µM.

**Q.** What about the kcat [12] of the same protein?
**A.** Its kcat is 450 s⁻¹.

**Q.** And the kcat/Km [13]?
**A.** Its kcat/Km is 640000 M⁻¹ s⁻¹.

**Q.** What about the Km [14] of the same protein?
**A.** Its Km is 120 µM.

**Q.** And the kcat [14]?
**A.** Its kcat is 77 s⁻¹.

**Q.** And the kcat/Km [15]?
**A.** Its kcat/Km is 52000 M⁻¹ s⁻¹.

**Q.** What about the kcat/Km [16] of the same protein?
**A.** Its kcat/Km is 4.1e+07 M⁻¹ s⁻¹.

**Q.** What about the kcat/Km [17] of the same protein?
**A.** The kcat/Km was 110000 M⁻¹ s⁻¹.

**Q.** And the kcat/Km [18]?
**A.** The kcat/Km was 50000 M⁻¹ s⁻¹.

**Q.** And the kcat/Km [19]?
**A.** Its kcat/Km is 350000 M⁻¹ s⁻¹.

**Q.** What about the Km (Pseudomonas aeruginosa [20]) of the same protein?
**A.** The Km was 82 µM.

**Q.** And the kcat (Pseudomonas aeruginosa [20])?
**A.** The kcat was 45 s⁻¹.

**Q.** And the kcat/Km (Pseudomonas aeruginosa [21])?
**A.** The kcat/Km was 550000 M⁻¹ s⁻¹.

From ChEMBL document CHEMBL1212772
